According to patent US20190300590A1 (PROTAGONIST THERAPEUTICS, published 2019):
Read-outs that look alike come from different tables or passages of the source. *1 amine or outer side, *2 acyl side, *3 side chain or, on linkers, in order; H or OH if unused. Bridges are numbered along the chain shown (N, C = ends). Primed or numbered codes have the meaning given here. [ ]: non-standard residue; d: D form. The star is where a group is joined. Phe(4-OMe)(3) = O-methyl-L-tyrosine (4-methoxy-L-phenylalanine), COc1ccc(C[C@H](N[*:1])C(=O)[*:2])cc1; Phe(4-OMe) = 4-methoxy-L-phenylalanine (O-methyl-L-tyrosine), COc1ccc(C[C@H](N[*:1])C(=O)[*:2])cc1; Phe(4-OMe)(4) = O-methyl-L-tyrosine, COc1ccc(C[C@H](N[*:1])C(=O)[*:2])cc1; Trp(6-Cl) = N[C@@H](Cc1c[nH]c2cc(Cl)ccc12)C(=O)O; 2Nal = N[C@@H](Cc1ccc2ccccc2c1)C(=O)O; AEF = NCCOc1ccc(C[C@H](N)C(=O)O)cc1; pGlu = O=C1CC[C@@H](C(=O)O)N1; αMeL = CC(C)C[C@](C)(N)C(=O)O; Suc = O=C(CCC(=O)[*:2])[*:1]; αMeK = C[C@](N)(CCCCN)C(=O)O; Isovaleryl = CC(C)CC(=O)*; Abu = CC[C@H](N)C(=O)O; Dap = NC[C@H](N)C(=O)O; Aib = CC(C)(N)C(=O)O

What was measured:
Rat IL-23R_huFC [1] = molecular target: Rat IL-23R_huFC (rat); assay: rat ELISA vs IL-23
IL23R_huFC [2] = molecular target: T1, IL23R_huFC (human, UniProt Q5VWK5 24-353); assay: human ELISA vs IL-23
T1 sequence (looked up): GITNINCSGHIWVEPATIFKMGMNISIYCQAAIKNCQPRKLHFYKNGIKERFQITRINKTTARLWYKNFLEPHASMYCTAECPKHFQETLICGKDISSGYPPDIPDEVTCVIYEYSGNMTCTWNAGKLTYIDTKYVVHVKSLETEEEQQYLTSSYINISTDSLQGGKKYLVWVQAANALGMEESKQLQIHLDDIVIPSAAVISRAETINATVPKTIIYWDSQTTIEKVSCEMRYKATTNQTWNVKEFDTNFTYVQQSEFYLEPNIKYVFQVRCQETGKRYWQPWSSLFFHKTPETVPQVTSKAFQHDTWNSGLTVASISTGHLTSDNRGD

Rat IL-23R_huFC [3] = molecular target: T2, Rat IL-23R_huFC (rat, UniProt F1LX96 39-369); assay: rat IL-23R competitive binding ELISA
T2 sequence: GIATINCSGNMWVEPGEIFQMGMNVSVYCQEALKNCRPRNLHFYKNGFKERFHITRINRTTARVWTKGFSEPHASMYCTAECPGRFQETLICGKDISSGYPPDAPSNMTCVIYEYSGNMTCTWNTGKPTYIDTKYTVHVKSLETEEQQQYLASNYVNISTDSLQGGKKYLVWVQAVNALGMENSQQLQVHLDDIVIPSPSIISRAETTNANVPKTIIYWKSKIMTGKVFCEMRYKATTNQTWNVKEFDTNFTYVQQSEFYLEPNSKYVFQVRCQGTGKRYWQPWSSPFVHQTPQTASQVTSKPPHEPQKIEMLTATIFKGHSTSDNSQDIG

[4] = molecular target: T3, IL-23R on human cells (IL-23R-expressing DB cells; human NK cells) (human, UniProt Q5VWK5 24-629); assay: cell-based or functional assay
T3 sequence (looked up): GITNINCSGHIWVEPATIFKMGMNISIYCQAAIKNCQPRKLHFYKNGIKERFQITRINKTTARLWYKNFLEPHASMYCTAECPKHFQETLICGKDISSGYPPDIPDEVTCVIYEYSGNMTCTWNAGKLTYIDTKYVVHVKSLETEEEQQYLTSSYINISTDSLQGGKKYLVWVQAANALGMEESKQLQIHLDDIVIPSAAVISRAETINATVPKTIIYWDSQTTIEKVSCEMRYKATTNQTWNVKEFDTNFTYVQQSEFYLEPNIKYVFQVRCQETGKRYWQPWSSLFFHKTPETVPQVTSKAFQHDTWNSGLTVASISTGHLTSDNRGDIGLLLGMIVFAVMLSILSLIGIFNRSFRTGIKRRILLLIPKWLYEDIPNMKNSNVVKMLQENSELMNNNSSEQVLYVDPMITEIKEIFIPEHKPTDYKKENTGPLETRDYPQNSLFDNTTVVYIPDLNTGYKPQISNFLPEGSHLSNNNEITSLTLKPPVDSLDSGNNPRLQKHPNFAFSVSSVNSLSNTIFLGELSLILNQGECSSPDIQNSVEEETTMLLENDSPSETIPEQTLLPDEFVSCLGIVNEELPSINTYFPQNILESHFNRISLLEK

IL23R_huFC [5] = molecular target: T1, IL23R_huFC; assay: human ELISA vs IL-23; remark: listed apart in the source
Rat IL-23R_huFC [6] = molecular target: Rat IL-23R_huFC (rat); assay: rat ELISA vs IL-23; remark: listed apart in the source

Binder Ac-[Abu]QTWQC[Phe(4-OMe)]W[αMeK]K(Ac)NG-NH2 (thioether 1-6) [Ac-Cyclo-[[Abu]-QTWQC]-[Phe(4-OMe)]-W-[α-MeLys]-[Lys(Ac)]-NG-NH2] has an IC50 (Rat IL-23R_huFC [1]) of 10 to 25 nM and an IC50 (IL23R_huFC [2]) of 10 to 25 nM.

B1: glutaric acid-[Pen]-QTWQ[Pen]-[Phe(4-OMe)]-[2-Nal]-[α-MeLys]-[Lys(Ac)]-NG-NH2 (peptide)
peptide: XQTWQXFXKKNG
modifications: N-terminal glutaric acid; Pen-Pen disulfide; Phe(4-OMe); 2-Nal; α-MeLys; Lys(Ac); NH2
For B1, the IC50 (Rat IL-23R_huFC [3]) was 25 to 100 nM.

In the case of Ac-[Abu]QTWQC[AEF]W[αMeK]ENG-NH2 (thioether 1-6) [Ac-Cyclo-[[Abu]-QTWQC]-[Phe[4-(2-aminoethoxy)]-W-[α-MeLys]-ENG-NH2], the IC50 (Rat IL-23R_huFC [1]) is reported as 10 to 25 nM.

For Ac-[dK][Abu]QTWQC[Phe(4-OMe)(4)][2Nal][αMeL]ENG-NH2 (thioether 2-7) [Ac-(D)Lys-[Cyclo-[[Abu]-QTWQC]]-[Phe(4-OMe)]-[2-Nal]-[α-MeLeu]-ENG-NH2], the “pStat3 HTRF IC50” value [4] was < 10 nM, the IC50 (Rat IL-23R_huFC [1]) was 10 to 25 nM and the IC50 (IL23R_huFC [5]) was < 10 nM.

In the case of Ac-[Abu]QTWQC[AEF][2Nal][αMeK][Dap](pGlu)NG-NH2 (thioether 1-6) [Ac-Cyclo-[[Abu]-QTWQC]-[Phe[4-(2-aminoethoxy)]]-[2-Nal]-[α-MeLys]-[Dap(pyroglutamic acid)]-NG-NH2], the “pStat3 HTRF IC50” value [4] is reported as < 10 nM and the IC50 (IL23R_huFC [2]) is reported as 10 to 25 nM.

For Ac-[Abu]QTWQC[AEF]W[Aib]ENG-NH2 (thioether 1-6) [Ac-Cyclo-[[Abu]-QTWQC]-[Phe[4-(2-aminoethoxy)]]-W-[Aib]-ENG-NH2], the “pStat3 HTRF IC50” value [4] was < 10 nM and the IC50 (IL23R_huFC [2]) was 10 to 25 nM.

In the case of Ac-[Abu]QTWQC[Phe(4-OMe)(3)][2Nal][αMeK]K(Ac)NAE-NH2 (thioether 1-6) [Ac-Cyclo-[[Abu]-QTWQC]-[Phe(4-OMe)]-[2-Nal][α-MeLys]-[Lys(Ac)]-NAE-NH2], the “pStat3 HTRF IC50” value [4] is reported as < 10 nM, the IC50 (Rat IL-23R_huFC [1]) is reported as 10 to 25 nM and the IC50 (IL23R_huFC [5]) is reported as < 10 nM.

For Ac-[Abu]NTWQC[Phe(4-OMe)(4)][2Nal][αMeK]K(Ac)NG-NH2 (thioether 1-6) [Ac-Cyclo-[[Abu]-NTWQC]-[Phe(4-OMe)]-[2-Nal][α-MeLys]-[Lys(Ac)]-NG-NH2], the “pStat3 HTRF IC50” value [4] was < 10 nM, the IC50 (IL23R_huFC [2]) was 10 to 25 nM and the IC50 (Rat IL-23R_huFC [6]) was 25 to 100 nM.

In the case of Ac-[Abu]QTWQC[Phe(4-OMe)][2Nal][αMeK]ENG-NH2 (thioether 1-6) [Ac-Cyclo-[[Abu]-QTWQC]-[Phe(4-OMe)]-[2-Nal]-[α-MeLys]-ENG-NH2], the “pStat3 HTRF IC50” value [4] is reported as < 10 nM, the IC50 (IL23R_huFC [2]) is reported as 10 to 25 nM and the IC50 (Rat IL-23R_huFC [6]) is reported as 25 to 100 nM.

For Ac-[Abu]QTWQC[AEF][2Nal][αMeK]DNG-NH2 (thioether 1-6) [Ac-Cyclo-[[Abu]-QTWQC]-[Phe[4-(2-aminoethoxy)]]-[2-Nal][α-MeLys]-DNG-NH2], the “pStat3 HTRF IC50” value [4] was < 10 nM, the IC50 (Rat IL-23R_huFC [1]) was 10 to 25 nM and the IC50 (IL23R_huFC [5]) was < 10 nM.

Ac-[Abu]QTWQC[Phe(4-OMe)(3)][2Nal][αMeK]K(Ac)NA-NH2 (thioether 1-6) [Ac-Cyclo-[[Abu]-QTWQC]-[Phe(4-OMe)]-[2-Nal][α-MeLys]-[Lys(Ac)]-NA-NH2] was tested, and the “pStat3 HTRF IC50” value [4] was < 10 nM, the IC50 (Rat IL-23R_huFC [1]) was 10 to 25 nM and the IC50 (IL23R_huFC [5]) was < 10 nM.

For Ac-[Abu]QT[Trp(6-Cl)]QC[AEF][2Nal][αMeK]ENG-NH2 (thioether 1-6) [Ac-Cyclo-[[Abu]-QT-[6-chloroTrp]-QC]-[Phe[4-(2-aminoethoxy)]]-[2-Nal]-[α-MeLys]-ENG-NH2], the “pStat3 HTRF IC50” value [4] was < 10 nM, the IC50 (Rat IL-23R_huFC [1]) was 10 to 25 nM and the IC50 (IL23R_huFC [2]) was 10 to 25 nM.

Ac-[Abu]QTWQC[Phe(4-OMe)(3)][2Nal][αMeK]K(Ac)NS-NH2 (thioether 1-6) [Ac-Cyclo-[[Abu]-QTWQC]-[Phe(4-OMe)]-[2-Nal][α-MeLys]-[Lys(Ac)]-NS-NH2] was tested, and the “pStat3 HTRF IC50” value [4] was < 10 nM, the IC50 (Rat IL-23R_huFC [1]) was 10 to 25 nM and the IC50 (IL23R_huFC [2]) was 10 to 25 nM.

In the case of Ac-[Abu]QTWQCY[2Nal][αMeK]ENG-NH2 (thioether 1-6) [Ac-Cyclo-[[Abu]-QTWQC]-Y-[2-Nal]-[α-MeLys]-ENG-NH2], the IC50 (Rat IL-23R_huFC [1]) is reported as 10 to 25 nM.

B2: isovaleric acid-[Pen]-QTWQ[Pen]-[Phe(4-OMe)]-[2-Nal]-[α-MeLys]-[Lys(Ac)]-NG-NH2 (peptide)
peptide: XQTWQXFXKKNG
modifications: N-terminal isovaleric acid; Pen-Pen disulfide; Phe(4-OMe); 2-Nal; α-MeLys; Lys(Ac); NH2
For B2, the IC50 (Rat IL-23R_huFC [3]) was 25 to 100 nM.

Ac-[Abu]QTWQC[AEF][2Nal][αMeK]K(Suc)NG-NH2 (thioether 1-6) [Ac-Cyclo-[[Abu]-QTWQC]-[Phe[4-(2-aminoethoxy)]]-[2-Nal]-[α-MeLys]-[Lys(succinic acid)]-NG-NH2] was tested, and the IC50 (Rat IL-23R_huFC [1]) was 10 to 25 nM.

Ac-[Abu]QTWQC[AEF][2Nal][αMeK]K(Isovaleryl)NG-NH2 (thioether 1-6) [Ac-Cyclo-[[Abu]-QTWQC]-[Phe[4-(2-aminoethoxy)]]-[2-Nal]-[α-MeLys]-[Lys(isovaleric acid)]-NG-NH2] gave an IC50 (Rat IL-23R_huFC [1]) of 10 to 25 nM.

For XQTWQCFWXENG (as bracketed in name; thioether cyclo) [Ac-Cyclo-[[Abu]-QTWQC]-[Phe[4-(2-aminoethoxy)]]-W-[α-Me-Orn]-ENG-NH2], the “pStat3 HTRF IC50” value [4] was < 10 nM and the IC50 (IL23R_huFC [2]) was 10 to 25 nM.

Work on XQTWQXFWKKNG (Ac; Pen-Pen disulfide; Phe(4-OMe); α-MeLys; Lys(Ac); NH2) [Ac-[Pen]-QTWQ-[Pen]-[Phe-(4-OMe)]-W-[α-MeLys]-[Lys(Ac)]-NG-NH2] yielded an IC50 (Rat IL-23R_huFC [3]) of 25 to 100 nM.
